167 variants from the RNAGym collection of RNA variant scans (doi:10.7554/elife.80360) can be followed below.

B1: CPEB3 Ribozyme (parent)
chain: GGGGGCCACAGCAGAAGCGUUCACGUCGCGGCCCCUGUCAGAUUCUGGUGAAUCUGCGAAUUCUGCUGU

The variants in the data set derive from B1. In words: self-cleavage, relative activity (ratio to wild type); higher = more cleavage; co-transcriptional.
In the case of G30C C66U, the self-cleavage amounted to 0.666.
The value for G30C C66A was 0.397.
As to C29G U53A, the self-cleavage is 0.308.
Consider C29G U53G, for which the self-cleavage amounted to 0.389.
The value for C29G U53C was 0.193.
The value for C29G C54A was 0.259.
As for C29U G48A, the self-cleavage is 0.601.
Regarding C29U G48U, the self-cleavage came to 0.583.
Regarding C29G G31A, the self-cleavage was found to be 0.146.
C29G G31U: the self-cleavage amounted to 0.131.
With C29U G47C the figure was 0.62; with C29U G47A, 0.598; with G30C C35G, 0.15.
For C29G A52U, the self-cleavage came out at 0.504.
For the variant C29G A52G, the self-cleavage stood at 0.53.
For the variant C29U C63U, the self-cleavage stood at 0.253.
The value for G30A C32A was 0.245.
With G30A C32U the figure was 0.714.
In the case of G30A C32G, the self-cleavage was determined as 0.261.
Consider G30A U49G, for which the self-cleavage came to 0.674.
Turning to G30A U49C, the self-cleavage stood at 0.909.
With G30A U53C, the self-cleavage came out at 0.604.
Turning to G30A U53A, the self-cleavage was determined as 0.541.
For G30A U53G, the self-cleavage was 0.356.
Take C29U A52G: the self-cleavage was determined as 0.529.
With C29U A52C, the self-cleavage is 0.417.
Turning to C29U A52U, the self-cleavage turned out to be 0.396.
In the case of G30C U38A, the self-cleavage stood at 0.314.
For G30C U38G, the self-cleavage was found to be 0.204.
G30C U38C: the self-cleavage stood at 0.379.
The value for G30A C57U was 0.272; that for G30C C63G was 0.329.
Turning to G30C C63U, the self-cleavage came out at 0.645.
With G30A C34U, the self-cleavage was 0.741.
With G30U A40G the figure was 0.341.
Take G30C G31C: the self-cleavage worked out at 0.136.
As for G30C G31A, the self-cleavage worked out at 0.252.
As to C29U C33G, the self-cleavage was 0.226.
Take C29U C33A: the self-cleavage came to 0.355.
C29A U64G: the self-cleavage turned out to be 0.292.
In the case of C29U G68A, the self-cleavage was 0.586.
The value for C29U G68U was 0.515.
Turning to G30A U67A, the self-cleavage worked out at 0.901.
Take G30A U67G: the self-cleavage was determined as 0.948.
For the variant G30A U36A, the self-cleavage came to 0.196.
Consider G30U A59G, for which the self-cleavage turned out to be 0.309.
The value for G30U A59C was 0.172; that for G30U A59U was 0.222.
For C29U G41C, the self-cleavage worked out at 0.173.
With C29U G41A the figure was 0.184; with C29U A40G, 0.288.
With C29U A40C, the self-cleavage is 0.203.
As to C29U A40U, the self-cleavage was 0.157.
Regarding G30C G41A, the self-cleavage worked out at 0.298.
In the case of C29U C57U, the self-cleavage was found to be 0.227.
The value for C29U C57G was 0.177.
Regarding C29U C57A, the self-cleavage was 0.154.
As for C29U U49C, the self-cleavage came to 0.411.
On to C29U U49A, for which the self-cleavage worked out at 0.542.
Consider C29U U49G, for which the self-cleavage came out at 0.514.
On to G30C C34A, for which the self-cleavage amounted to 0.243.
As for G30C C34U, the self-cleavage came to 0.6.
Regarding G30A G65A, the self-cleavage is 0.627.
As to G30A G65C, the self-cleavage was determined as 0.353.
For G30A U43A, the self-cleavage came to 0.579.
For the variant G30A U43G, the self-cleavage was determined as 0.464.
Turning to G30A U43C, the self-cleavage amounted to 0.704.
Turning to G30A G50C, the self-cleavage was determined as 0.774.
On to G30A G50A, for which the self-cleavage was determined as 0.927.
Turning to C29U U44G, the self-cleavage was determined as 0.3.
As for C29U U44C, the self-cleavage is 0.311.
The value for G30A C35A was 0.207; that for C29U C34U was 0.495.
The value for C29U C34G was 0.276.
Regarding C29U C34A, the self-cleavage is 0.299.
Consider G30C U53G, for which the self-cleavage is 0.46.
With G30C U53C, the self-cleavage is 0.44.
Take C29A U69C: the self-cleavage turned out to be 0.973.
Turning to G30A C54A, the self-cleavage was determined as 0.431.
For G30A C54U, the self-cleavage turned out to be 0.876.
With G30U A60C, the self-cleavage is 0.173.
On to G30U A60U, for which the self-cleavage turned out to be 0.213.
Consider C29G C39A, for which the self-cleavage was found to be 0.213.
The value for C29G C45G was 0.407; that for C29G C45A was 0.402.
As for C29G C35A, the self-cleavage stood at 0.234.
In the case of C29G C35U, the self-cleavage came out at 0.307.
Regarding C29G C35G, the self-cleavage is 0.301.
Turning to G30C U61G, the self-cleavage is 0.304.
The value for C29U U64C was 0.371.
With C29U U46A, the self-cleavage came out at 0.699.
As to C29U U62C, the self-cleavage is 0.211.
With C29U U62G the figure was 0.21; with G30U C34G, 0.193.
For G30U C34U, the self-cleavage was 0.323.
Regarding G30U C54A, the self-cleavage worked out at 0.248.
In the case of G30U C54G, the self-cleavage amounted to 0.248.
Turning to G30A G56C, the self-cleavage came to 0.413.
As to G30A G56U, the self-cleavage turned out to be 0.693.
Consider G30A G56A, for which the self-cleavage was 0.713.
With G30C U46G the figure was 0.69; with C29U G30U, 0.169; with C29U G30C, 0.232.
For the variant C29A U67A, the self-cleavage was found to be 0.668.
The value for C29A U67C was 0.736; that for G30A C66U was 0.861; that for G30A C66G was 0.61.
C29G C33G: the self-cleavage is 0.16.
Regarding C29G C33A, the self-cleavage worked out at 0.212.
Consider C29U G65A, for which the self-cleavage is 0.19.
Regarding C29U G65U, the self-cleavage was 0.167.
On to C29U G65C, for which the self-cleavage turned out to be 0.272.
For C29G G41A, the self-cleavage worked out at 0.236.
In the case of C29G U55C, the self-cleavage turned out to be 0.253.
For the variant C29G U55G, the self-cleavage was 0.171.
In the case of C29G U55A, the self-cleavage was 0.267.
On to G30C U36A, for which the self-cleavage is 0.192.
Take G30C U36G: the self-cleavage amounted to 0.188.
The value for C29U U36A was 0.132.
The value for G30C G56A was 0.464.
On to C29G U44C, for which the self-cleavage was determined as 0.314.
In the case of C29G U44A, the self-cleavage worked out at 0.338.
The value for G30A G48C was 0.901; that for G30A G48U was 0.868.
G30C A52G: the self-cleavage is 0.724.
As to G30C A52C, the self-cleavage turned out to be 0.506.
On to G30C A52U, for which the self-cleavage came out at 0.556.
The value for C29U C45A was 0.307; that for C29U C45U was 0.505.
Turning to C29U C45G, the self-cleavage was 0.404.
For the variant G30U C33A, the self-cleavage amounted to 0.233.
G30U C33G: the self-cleavage is 0.192.
For the variant G30U C33U, the self-cleavage turned out to be 0.295.
Turning to C29U A60U, the self-cleavage is 0.23.
With C29U A60G the figure was 0.345.
Turning to G30C A59U, the self-cleavage was determined as 0.295.
With G30C A59G the figure was 0.708; with G30C A59C, 0.306; with G30A C39G, 0.596.
For G30A C39U, the self-cleavage was 0.598.
Take G30A U44C: the self-cleavage worked out at 0.697.
For G30A U44A, the self-cleavage turned out to be 0.658.
Regarding G30A, the self-cleavage came out at 0.913.
In the case of G30U, the self-cleavage stood at 0.411.
With G30C, the self-cleavage was 0.682.
Turning to C29G C66U, the self-cleavage worked out at 0.418.
The value for C29G C66A was 0.312; that for G30C G58U was 0.579; that for G30C G58C was 0.494.
With G30C G58A the figure was 0.359; with C29G C57A, 0.215.
Regarding C29G C57G, the self-cleavage stood at 0.183.
Take C29G C57U: the self-cleavage turned out to be 0.206.
With G30U C35A the figure was 0.191; with G30U C35G, 0.213.
In the case of C29G G37U, the self-cleavage worked out at 0.185.
Turning to G30A A59U, the self-cleavage worked out at 0.361.
In the case of G30A A40C, the self-cleavage is 0.276.
With G30A A40G the figure was 0.754; with G30A A40U, 0.461.
With G30A U62C the figure was 0.497; with G30A A51U, 0.752.
For the variant G30A A51G, the self-cleavage stood at 0.744.
In the case of C29G C32A, the self-cleavage was 0.196.
As to C29G C32G, the self-cleavage was determined as 0.18.
Take G30C A40G: the self-cleavage worked out at 0.462.
Consider G30C A40C, for which the self-cleavage amounted to 0.197.
